No end group written: not given here.
Tests used:
[1] = molecular target: NMDAR/PSD-95 interaction (Rattus norvegicus, UniProt P31016); type: binding; settings: as compared with controls
[2] = system: cultured cortical neurons; assay: Intracellular peptide delivery into cortical neuronal cultures (dansyl fluorescence, confocal microscopy); type: cell-based, mouse; settings: bath applied to cultured cortical neurons; dansyl peptides 10 μM
Description: I bath applied these to cultured cortical neurons and observed their fluorescence by confocal microscopy. […] Tat-NR2B9c-dansyl was detectable in the neurons within 10 min of the start of the application and the peptide accumulated to a maximum level over the next 20 min (FIG. 5C). This level was maintained until the dansyl-Tat-NR2B9c was washed from the bath and the peptide remained detectable within the neurons for more than 5 hours thereafter.

NMDAR/PSD-95 interaction, sequence (P31016 whole entry): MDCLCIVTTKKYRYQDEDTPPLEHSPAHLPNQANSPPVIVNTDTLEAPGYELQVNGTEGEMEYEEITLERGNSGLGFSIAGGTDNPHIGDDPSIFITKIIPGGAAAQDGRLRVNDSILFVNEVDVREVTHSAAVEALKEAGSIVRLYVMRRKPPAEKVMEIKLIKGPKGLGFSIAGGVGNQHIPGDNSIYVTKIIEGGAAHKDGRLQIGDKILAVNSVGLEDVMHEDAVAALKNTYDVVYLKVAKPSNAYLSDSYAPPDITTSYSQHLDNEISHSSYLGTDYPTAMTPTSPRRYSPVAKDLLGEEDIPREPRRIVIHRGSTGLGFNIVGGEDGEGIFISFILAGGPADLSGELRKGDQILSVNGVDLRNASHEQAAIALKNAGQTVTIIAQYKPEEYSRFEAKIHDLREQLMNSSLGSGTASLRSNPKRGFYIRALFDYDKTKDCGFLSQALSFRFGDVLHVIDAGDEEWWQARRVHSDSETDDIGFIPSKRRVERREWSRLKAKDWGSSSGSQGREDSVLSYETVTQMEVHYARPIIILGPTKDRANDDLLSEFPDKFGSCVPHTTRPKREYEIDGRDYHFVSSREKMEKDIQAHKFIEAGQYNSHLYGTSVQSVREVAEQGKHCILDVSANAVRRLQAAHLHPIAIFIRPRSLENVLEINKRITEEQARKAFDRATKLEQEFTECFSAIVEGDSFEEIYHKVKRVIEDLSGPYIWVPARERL

With KALGISYGRKK [Tat38-48] as the sequence, how does the “reduction of co-immunoprecipitation of PSD-95 with NR2B (optical density signal)” value [1] read?
Its value is “none of the three control peptides reduced”.

With KLSSIESDV [NR2B9c] as the sequence, how does the “entry into cells / intracellular fluorescence” value [2] read?
Its value is “did not enter cells”.

Source: patent publication US8071548B2, “Method of reducing injury to mammalian cells” (Nono, Inc., priority 2002, dated 2011)
